# Test results taken from paper PMC8207774, “NtbHLH1, a JAF13-like bHLH, interacts with NtMYB6 to enhance proanthocyanidin accumulation in Chinese Narcissus” (BMC Plant Biology, 2021).
# T1: NtbHLH1 (Chinese narcissus (Narcissus tazetta L. …, UniProt A0A517FM44 1-631))
# T1 sequence (looked up): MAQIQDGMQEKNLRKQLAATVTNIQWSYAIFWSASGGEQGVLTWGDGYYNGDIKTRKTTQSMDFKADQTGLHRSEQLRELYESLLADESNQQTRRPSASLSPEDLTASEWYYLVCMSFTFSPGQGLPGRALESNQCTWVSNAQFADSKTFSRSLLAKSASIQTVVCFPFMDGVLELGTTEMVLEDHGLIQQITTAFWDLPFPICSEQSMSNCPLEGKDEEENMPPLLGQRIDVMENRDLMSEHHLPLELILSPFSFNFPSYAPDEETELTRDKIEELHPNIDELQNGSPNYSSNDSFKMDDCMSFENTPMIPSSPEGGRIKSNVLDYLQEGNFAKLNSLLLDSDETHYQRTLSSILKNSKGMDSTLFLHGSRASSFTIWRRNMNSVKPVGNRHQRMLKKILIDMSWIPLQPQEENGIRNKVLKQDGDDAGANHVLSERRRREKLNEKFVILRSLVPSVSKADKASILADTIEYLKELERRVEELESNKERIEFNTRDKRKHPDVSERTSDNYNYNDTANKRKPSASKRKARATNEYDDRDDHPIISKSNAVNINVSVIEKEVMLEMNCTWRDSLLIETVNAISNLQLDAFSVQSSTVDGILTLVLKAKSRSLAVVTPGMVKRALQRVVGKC
# B1: NtMYB6 (natural protein, UniProt A0A1U9X216 1-249, looked up)
# chain: MGRAPCCSKVGLHRGPWTAREDALLTNYIQCHGEGNWRSLPKNAGLLRCGKSCRLRWMNYLRPDIKRGNIGPEEEDLIIRLHSLLGNRWSIIAGRLPGRTDNEIKNYWNSHLSKKLKKQGIQVRGNLSSKQSKSSKMNNNDNNNNLEKRKNIKETPKIKIHAPKPTRFTRTISQSSSSCQANNVENVTSEDERCDIPWTNAESQDDIFAPGSWNYELFDIDRVYQEYSQLLNGEDDQFPMASFTESVFA
# Molecular target: T1, NtbHLH1
# Assay: cell-based or functional assay
binder,measurement,value
B1,"NtDFR promoter activity, dual luciferase assay in N. benthamiana leaves, co-infiltration of NtbHLH1 and NtMYB6 compared to NtMYB6 alone",~8 fold
same,"NtDFR promoter activity, dual luciferase assay in N. benthamiana leaves, co-infiltration of NtbHLH1 and NtMYB6 compared to the control",~14 fold
